According to article PMC3612955:

Target: actin (untreated, of the in vitro assays of Fig. 1) (UniProt P68135)

Sequence of Mical (Q86BA1 whole entry): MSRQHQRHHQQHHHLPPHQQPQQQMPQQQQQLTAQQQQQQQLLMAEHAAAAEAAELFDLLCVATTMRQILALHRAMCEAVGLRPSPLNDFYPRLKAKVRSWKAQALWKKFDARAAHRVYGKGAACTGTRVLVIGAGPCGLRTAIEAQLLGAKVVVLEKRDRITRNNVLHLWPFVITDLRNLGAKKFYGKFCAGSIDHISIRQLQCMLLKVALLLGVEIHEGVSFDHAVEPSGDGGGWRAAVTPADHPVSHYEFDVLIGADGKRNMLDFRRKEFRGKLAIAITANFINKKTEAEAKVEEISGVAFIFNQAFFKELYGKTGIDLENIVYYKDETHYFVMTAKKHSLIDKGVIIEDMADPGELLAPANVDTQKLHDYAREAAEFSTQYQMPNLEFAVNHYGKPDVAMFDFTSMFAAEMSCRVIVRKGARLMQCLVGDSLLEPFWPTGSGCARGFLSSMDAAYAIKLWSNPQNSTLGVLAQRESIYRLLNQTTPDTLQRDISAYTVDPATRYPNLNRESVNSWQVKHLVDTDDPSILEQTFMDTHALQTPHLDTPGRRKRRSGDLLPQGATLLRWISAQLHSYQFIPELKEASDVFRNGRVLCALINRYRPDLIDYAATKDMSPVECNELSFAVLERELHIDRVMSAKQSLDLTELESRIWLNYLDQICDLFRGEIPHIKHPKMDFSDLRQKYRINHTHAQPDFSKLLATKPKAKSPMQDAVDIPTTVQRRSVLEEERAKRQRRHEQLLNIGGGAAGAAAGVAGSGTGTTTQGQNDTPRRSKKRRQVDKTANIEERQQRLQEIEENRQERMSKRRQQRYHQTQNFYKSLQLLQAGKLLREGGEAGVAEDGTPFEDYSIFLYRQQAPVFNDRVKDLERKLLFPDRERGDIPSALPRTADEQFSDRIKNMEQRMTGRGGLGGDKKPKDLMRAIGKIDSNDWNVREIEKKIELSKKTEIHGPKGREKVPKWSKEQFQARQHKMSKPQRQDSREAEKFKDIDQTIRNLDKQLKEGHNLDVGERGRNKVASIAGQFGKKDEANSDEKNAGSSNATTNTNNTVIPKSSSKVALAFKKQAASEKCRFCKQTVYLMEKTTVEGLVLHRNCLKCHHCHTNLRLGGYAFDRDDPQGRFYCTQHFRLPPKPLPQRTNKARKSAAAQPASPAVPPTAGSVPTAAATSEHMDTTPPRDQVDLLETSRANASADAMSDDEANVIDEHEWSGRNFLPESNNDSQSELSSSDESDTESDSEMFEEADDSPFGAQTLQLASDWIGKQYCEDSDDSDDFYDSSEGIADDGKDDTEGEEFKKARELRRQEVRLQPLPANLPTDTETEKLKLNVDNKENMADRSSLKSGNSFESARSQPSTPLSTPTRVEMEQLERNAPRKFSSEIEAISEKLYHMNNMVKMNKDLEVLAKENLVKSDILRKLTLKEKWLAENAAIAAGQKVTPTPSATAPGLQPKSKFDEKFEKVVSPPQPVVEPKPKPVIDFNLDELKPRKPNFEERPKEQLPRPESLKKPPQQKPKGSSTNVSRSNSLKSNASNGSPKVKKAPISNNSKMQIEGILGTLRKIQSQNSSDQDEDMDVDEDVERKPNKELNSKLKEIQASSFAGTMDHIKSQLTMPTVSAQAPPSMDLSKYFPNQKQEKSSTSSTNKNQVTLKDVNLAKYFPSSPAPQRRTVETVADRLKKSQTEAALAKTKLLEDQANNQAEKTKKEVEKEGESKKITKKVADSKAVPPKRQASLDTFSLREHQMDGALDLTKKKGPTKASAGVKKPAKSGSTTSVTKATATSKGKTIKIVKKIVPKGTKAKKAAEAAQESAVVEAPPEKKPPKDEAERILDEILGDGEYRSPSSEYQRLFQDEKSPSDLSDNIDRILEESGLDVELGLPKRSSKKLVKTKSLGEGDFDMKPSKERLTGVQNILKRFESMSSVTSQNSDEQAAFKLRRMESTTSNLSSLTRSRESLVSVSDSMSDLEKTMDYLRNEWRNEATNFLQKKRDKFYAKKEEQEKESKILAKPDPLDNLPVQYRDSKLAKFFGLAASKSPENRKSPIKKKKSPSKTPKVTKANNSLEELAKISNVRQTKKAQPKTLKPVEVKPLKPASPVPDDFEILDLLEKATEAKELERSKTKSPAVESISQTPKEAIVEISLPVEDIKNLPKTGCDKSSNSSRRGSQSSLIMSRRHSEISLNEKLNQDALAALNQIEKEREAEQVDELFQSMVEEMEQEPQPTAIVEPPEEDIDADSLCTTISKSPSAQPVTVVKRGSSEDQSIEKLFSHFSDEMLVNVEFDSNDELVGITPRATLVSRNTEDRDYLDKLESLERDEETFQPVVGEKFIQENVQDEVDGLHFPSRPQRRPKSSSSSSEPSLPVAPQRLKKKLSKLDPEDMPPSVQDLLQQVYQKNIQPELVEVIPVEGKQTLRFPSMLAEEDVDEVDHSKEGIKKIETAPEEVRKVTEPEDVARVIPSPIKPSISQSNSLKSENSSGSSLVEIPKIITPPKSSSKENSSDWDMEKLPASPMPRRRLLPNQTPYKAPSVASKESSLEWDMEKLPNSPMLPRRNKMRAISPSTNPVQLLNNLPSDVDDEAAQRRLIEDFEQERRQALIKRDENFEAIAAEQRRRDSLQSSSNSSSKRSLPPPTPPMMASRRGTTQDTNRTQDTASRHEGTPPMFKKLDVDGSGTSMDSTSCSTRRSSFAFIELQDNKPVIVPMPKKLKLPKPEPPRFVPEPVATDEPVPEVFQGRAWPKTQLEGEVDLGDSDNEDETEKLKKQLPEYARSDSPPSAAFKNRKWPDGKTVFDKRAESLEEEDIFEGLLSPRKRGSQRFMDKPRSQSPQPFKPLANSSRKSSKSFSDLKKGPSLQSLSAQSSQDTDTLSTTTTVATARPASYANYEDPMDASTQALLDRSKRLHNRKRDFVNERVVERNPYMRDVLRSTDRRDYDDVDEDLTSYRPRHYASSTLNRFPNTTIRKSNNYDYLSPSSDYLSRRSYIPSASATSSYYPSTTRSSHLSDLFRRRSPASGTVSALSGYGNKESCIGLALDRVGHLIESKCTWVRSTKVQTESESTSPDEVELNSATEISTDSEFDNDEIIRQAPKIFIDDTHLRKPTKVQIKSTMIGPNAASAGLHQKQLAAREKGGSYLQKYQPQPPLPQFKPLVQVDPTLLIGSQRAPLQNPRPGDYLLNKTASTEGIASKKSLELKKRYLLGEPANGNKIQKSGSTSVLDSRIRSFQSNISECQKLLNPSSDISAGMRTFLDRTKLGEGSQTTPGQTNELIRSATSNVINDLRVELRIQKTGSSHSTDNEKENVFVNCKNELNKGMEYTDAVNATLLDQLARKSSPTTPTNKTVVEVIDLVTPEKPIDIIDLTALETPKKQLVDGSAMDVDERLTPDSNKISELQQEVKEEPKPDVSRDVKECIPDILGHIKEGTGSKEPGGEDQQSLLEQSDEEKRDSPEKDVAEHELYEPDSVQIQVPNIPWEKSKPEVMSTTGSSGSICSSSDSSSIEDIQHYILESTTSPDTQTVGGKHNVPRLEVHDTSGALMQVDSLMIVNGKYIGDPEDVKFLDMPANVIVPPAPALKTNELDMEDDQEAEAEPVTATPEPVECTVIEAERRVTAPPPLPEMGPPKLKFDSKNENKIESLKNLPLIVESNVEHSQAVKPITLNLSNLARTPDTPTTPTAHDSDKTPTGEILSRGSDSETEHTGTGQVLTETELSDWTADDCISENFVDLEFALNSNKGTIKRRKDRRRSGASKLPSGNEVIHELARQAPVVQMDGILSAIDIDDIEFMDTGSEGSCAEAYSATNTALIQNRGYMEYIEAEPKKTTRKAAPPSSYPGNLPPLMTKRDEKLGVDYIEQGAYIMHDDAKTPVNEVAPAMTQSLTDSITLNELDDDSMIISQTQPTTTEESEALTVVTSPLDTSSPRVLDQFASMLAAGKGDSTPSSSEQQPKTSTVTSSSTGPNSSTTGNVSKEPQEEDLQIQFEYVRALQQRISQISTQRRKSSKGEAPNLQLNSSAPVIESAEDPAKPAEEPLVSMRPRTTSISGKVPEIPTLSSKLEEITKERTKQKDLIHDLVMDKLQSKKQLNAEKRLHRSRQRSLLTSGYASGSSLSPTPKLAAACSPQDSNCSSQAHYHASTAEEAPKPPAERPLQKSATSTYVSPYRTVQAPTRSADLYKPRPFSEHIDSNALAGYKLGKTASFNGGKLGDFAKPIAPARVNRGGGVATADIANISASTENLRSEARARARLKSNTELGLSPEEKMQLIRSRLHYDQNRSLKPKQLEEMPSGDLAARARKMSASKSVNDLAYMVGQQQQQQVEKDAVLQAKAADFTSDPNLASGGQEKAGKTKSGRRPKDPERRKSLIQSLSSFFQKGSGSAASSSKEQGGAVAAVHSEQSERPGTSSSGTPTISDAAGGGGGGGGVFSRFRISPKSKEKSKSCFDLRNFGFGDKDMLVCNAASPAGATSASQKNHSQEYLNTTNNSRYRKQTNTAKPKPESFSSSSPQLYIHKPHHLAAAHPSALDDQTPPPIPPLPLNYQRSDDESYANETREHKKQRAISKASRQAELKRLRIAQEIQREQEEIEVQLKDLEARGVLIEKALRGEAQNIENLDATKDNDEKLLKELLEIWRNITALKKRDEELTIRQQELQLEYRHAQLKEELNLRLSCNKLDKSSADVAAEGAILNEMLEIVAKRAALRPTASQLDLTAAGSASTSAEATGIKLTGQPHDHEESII

## Mical (from UniProt Q86BA1 1-4723) (enzyme)
  Mical enzymatic activity (conversion of NADPH to NADP+) with F-actin: > 100 fold
